From patent publication US20190309094A1

Experiments:
[1] = biological target: CD3 on Jurkat luciferase reporter cells (Homo sapiens (Human)) (UniProt P07766); experiment: flow cytometry on Jurkat_NFAT_Luc2P cells, PE-A; histogram shifted to about 10^4
[2] = biological target: hCD3εγ chains (human) (UniProt P07766); experiment: ELISA on hCD3εγ chains, curve fit (unit from the axis)
[3] = biological target: hCD3εγ chains (human) (UniProt P07766); experiment: ELISA on hCD3εγ chains, curve fit
[4] = biological target: CD3 on Jurkat luciferase reporter cells (Homo sapiens (Human)) (UniProt P07766); experiment: flow cytometry on Jurkat_NFAT_Luc2P cells, control staining in all three panels
[5] = biological target: CD3 on Jurkat luciferase reporter cells (Homo sapiens (Human)) (UniProt P07766); experiment: flow cytometry on Jurkat_NFAT_Luc2P cells, FITC-A; histogram shifted to between 10^3 and 10^4

UCHT1 (antibody), sequence (V domain): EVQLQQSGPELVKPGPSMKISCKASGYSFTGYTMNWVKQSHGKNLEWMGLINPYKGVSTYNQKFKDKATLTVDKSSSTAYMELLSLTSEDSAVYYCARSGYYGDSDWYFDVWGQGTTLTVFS
UCHT1 (antibody), sequence (VL): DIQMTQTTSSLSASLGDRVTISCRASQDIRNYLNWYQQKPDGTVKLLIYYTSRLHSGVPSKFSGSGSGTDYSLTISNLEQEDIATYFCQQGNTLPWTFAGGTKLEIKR

Commercial CD3e(HiT3a) (antibody) showed a Fold (fold over hIgG) [1] of 58.

In the case of UCHT1 (antibody), the Kd [2] is reported as 33.3 nM and the Bmax [3] is reported as 1.52 OD 450 nm.

hIgG (antibody) was tested, and the Fold (fold (reference)) [4] was 1.

In the case of mOKT3 (antibody), the Fold (fold over hIgG) [5] is reported as 45.
